Data published in patent US20050142135A1 (published 2005).
Changes are numbered by the printed parent chain. One block for each binder: values may come before it.

Experiments:
[1] = molecular target: T1, human LH receptor, wild type (human, UniProt P22888 27-699); test: 125I-hCG displacement / Scatchard; panels A-C
[2] = molecular target: T1, human LH receptor, wild type; test: 125I-hCG displacement / Scatchard; panels D-F
[3] = molecular target: T2, FSHR^S18A (human, UniProt P23945 18-695)
T2 chain: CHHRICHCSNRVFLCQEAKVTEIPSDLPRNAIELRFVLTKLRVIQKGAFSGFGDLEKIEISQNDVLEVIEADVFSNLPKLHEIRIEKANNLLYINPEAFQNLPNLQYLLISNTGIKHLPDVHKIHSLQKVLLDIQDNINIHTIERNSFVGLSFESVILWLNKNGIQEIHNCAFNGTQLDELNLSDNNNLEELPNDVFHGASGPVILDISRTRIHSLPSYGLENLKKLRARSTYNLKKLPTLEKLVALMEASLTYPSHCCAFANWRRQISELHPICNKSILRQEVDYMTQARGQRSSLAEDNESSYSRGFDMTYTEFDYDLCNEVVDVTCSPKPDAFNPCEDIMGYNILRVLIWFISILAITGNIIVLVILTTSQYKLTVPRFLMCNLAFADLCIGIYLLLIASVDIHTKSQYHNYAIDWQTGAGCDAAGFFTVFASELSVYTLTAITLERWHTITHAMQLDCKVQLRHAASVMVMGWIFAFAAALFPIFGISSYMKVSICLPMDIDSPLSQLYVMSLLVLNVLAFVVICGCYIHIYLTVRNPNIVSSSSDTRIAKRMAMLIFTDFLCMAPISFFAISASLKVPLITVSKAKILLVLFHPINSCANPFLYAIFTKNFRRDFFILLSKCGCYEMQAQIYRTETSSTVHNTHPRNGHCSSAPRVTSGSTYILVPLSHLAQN

[4] = molecular target: T3, FSHR^N10A (human, UniProt P23945 18-695)
T3 chain: T2 chain with N10A, A18S

[5] = molecular target: T4, FSHR^F13A (human, UniProt P23945 18-695)
T4 chain: T2 chain with F13A, A18S

[6] = molecular target: T5, FSHR^S9A (human, UniProt P23945 18-695)
T5 chain: T2 chain with S9A, A18S

[7] = molecular target: T6, FSHR^V12A (human, UniProt P23945 18-695)
T6 chain: T2 chain with V12A, A18S

[8] = molecular target: T7, FSHR^L14A (human, UniProt P23945 18-695)
T7 chain: T2 chain with L14A, A18S

[9] = molecular target: C; test: 125I-FSH displacement, Scatchard
[10] = molecular target: P; test: 125I-FSH displacement, Scatchard
[11] = molecular target: D; test: 125I-FSH displacement, Scatchard
[12] = molecular target: K590 Q; test: 125I-FSH displacement / Scatchard
[13] = molecular target: P582 E; test: 125I-FSH displacement / Scatchard
[14] = molecular target: P582 R; test: 125I-FSH displacement / Scatchard
[15] = molecular target: P582 C; test: 125I-FSH displacement / Scatchard
[16] = molecular target: P582 Y; test: 125I-FSH displacement / Scatchard
[17] = molecular target: P582 L; test: 125I-FSH displacement / Scatchard
[18] = molecular target: P582 Q; test: 125I-FSH displacement / Scatchard
[19] = molecular target: P582 S; test: 125I-FSH displacement / Scatchard
[20] = molecular target: P582 D; test: 125I-FSH displacement / Scatchard
[21] = molecular target: P582 F; test: 125I-FSH displacement / Scatchard

T1 sequence (P22888 27-699): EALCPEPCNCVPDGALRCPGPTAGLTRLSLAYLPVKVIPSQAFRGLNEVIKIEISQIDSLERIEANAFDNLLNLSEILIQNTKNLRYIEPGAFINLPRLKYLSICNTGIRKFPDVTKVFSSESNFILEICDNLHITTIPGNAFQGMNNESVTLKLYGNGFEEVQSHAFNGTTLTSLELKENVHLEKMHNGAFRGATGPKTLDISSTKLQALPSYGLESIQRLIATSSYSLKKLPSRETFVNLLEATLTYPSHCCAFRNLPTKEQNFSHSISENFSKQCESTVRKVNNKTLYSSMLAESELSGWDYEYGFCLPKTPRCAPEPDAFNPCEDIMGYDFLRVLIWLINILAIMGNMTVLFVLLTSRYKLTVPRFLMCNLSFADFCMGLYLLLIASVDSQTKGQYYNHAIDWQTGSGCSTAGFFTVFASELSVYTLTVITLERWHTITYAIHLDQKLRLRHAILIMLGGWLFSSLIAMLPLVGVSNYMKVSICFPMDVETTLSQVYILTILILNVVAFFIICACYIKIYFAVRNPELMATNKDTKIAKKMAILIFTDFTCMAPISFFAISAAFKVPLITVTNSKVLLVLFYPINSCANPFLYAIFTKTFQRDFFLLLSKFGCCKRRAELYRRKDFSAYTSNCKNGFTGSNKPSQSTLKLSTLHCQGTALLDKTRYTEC

Kd [1]: 0.412 nM
Kd [2]: 0.412 nM
B1: hCG (ligand)
chain 1: not shown
chain 2: SKEPLRPRCRPINATLAVEKEGCPVCITVNTTICAGYCPTMTRVLQGVLPALPQVVCNYRDVRFESIRLPGCPRGVNPVVSYAVALSCQCALCRRSTTDCGGPKDHPLTCDDPRFQDSSSSKAPPPSLPSPSRLPGPSDTPILPQ

Kd [3]: 3.64 nM
Kd [4]: 1.56 nM
Kd [5]: 2.56 nM
Kd [6]: 2.78 nM
Kd [7]: 2.53 nM
Kd [8]: 1.37 nM
B2: human FSH (ligand)
chain 1: not shown
chain 2: NSCELTNITIAIEKEECRFCISINTTWCAGYCYTRDLVYKDPARPKIQKTCTFKELVYETVRVPGCAHHADSLYTYPVATQCHCGKCDSDSTDCTVRGLGPSYCSFGEMKE

Kd [9]: 3.9 nM
Kd [10]: 1.6 nM
Kd [11]: 1.2 nM
Kd [12]: 19.6 nM
Kd [13]: 6.5 nM
Kd [14]: 4.1 nM
Kd [15]: 2.4 nM
Kd [16]: 4.3 nM
Kd [17]: 1.9 nM
Kd [18]: 6.2 nM
Kd [19]: 4.5 nM
Kd [20]: 3.6 nM
Kd [21]: 4.7 nM
B3: FSH (ligand)
chain 1: not shown
chain 2: B2 chain 2
